Data from publication PMC2959088.

Target: human cathepsin L (human)
Assay: enzyme inhibition assay (residual activity on the fluorogenic substrate Z-Phe-Arg-MCA); cathepsin B or L (0.3 nM) incubated 5 min at 37°C with varied inhibitor in 100 mM sodium acetate pH 5.5, 2.5 mM DTT; substrate 0.01 mM; triplicate; Ki(app) by non linear regression (GraFit), Ki by Morrison's procedure

B1: Oryzacystatin-1 (natural protein)
chain: MSSDGGPVLGGVEPVGNENDLHLVDLARFAVTEHNKKANSLLEFEKLVSVKQQVVAGTLYYFTIEVKEGDAKKLYEAKVWEKPWMDFKELQEFKPVDASANA
  Ki: 0.73 nM
